Assay results as given in article PMC3457997.

Legend:
[1] = target: CD95(1–66)-mCherry (human); test: SEC; concentrated serum-free supernatants of transfected HEK cells on Sephacryl S-300 and S-200 High Resolution columns in PBS, 0.5 mL/min; fractions analysed by immunoblot with anti-DsRed
[2] = target: CD95(1–158)-mCherry (human); test: as above

stoichiometry N [1]	stoichiometry N [2]	Substance
2		CD95(1–66)-mCherry (domain or fragment)
	3	CD95(1–158)-mCherry (domain or fragment)
